Measured values from PMC6255864.

What was measured:
[1] = biological target: T1, annexin-V, membrane-bound trimeric form (A5) (human), P08758; experiment: HS-AFM height spectroscopy (HS-AFM-HS); tip on one protomer of the rotating non-p6 trimer at the centre of the hexagonal A5 p6-lattice; dwell-times in the 0° and 60° orientations; captured at 655 kHz; settings: remark: other sources report otherwise
T1 chain: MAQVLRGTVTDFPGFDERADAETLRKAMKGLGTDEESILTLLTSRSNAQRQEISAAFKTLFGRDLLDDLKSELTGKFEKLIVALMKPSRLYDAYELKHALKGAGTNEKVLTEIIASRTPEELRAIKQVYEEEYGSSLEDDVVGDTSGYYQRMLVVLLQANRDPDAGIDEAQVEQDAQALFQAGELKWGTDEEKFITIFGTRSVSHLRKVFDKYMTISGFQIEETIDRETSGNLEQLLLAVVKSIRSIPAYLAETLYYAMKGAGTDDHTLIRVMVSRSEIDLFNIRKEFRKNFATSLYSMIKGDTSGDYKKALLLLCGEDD

[2] = biological target: T1, annexin-V, membrane-bound trimeric form …; experiment: HS-AFM line scanning (HS-AFM-LS); line scanned across one protomer of the non-p6 trimer in the A5 p6-lattice, 2.4 ms per line; dwell-times in each orientation before rotation; settings: remark: other sources report otherwise

B1: annexin-V, membrane-bound trimeric form (A5), P08758 1-320 (natural protein)
chain: T1 chain
[1]
  average dwell-time in the 0° or 60° orientation before rotation: 26 ms
[2]
  average dwell-time in the 0° or 60° orientation before rotation: 35 ms
  peak of the distribution of state dwell-times before rotation (Gaussian 1 of 3): 13 ms
  peak of the distribution of state dwell-times before rotation (Gaussian 2 of 3): 41 ms
  peak of the distribution of state dwell-times before rotation (Gaussian 3 of 3): 96 ms
